Measurements: article PMC5422877

How the values were obtained:
[1] = biological target: MqsA-CHis;MqsR (Pseudomonas putida KT2440;Pseudomonas putida KT2440) (UniProt Q88F94+Q88F93); test: EMSA; conditions: 10 mM HEPES pH 7.3, 20 mM KCl, 1 mM MgCl2, 5% glycerol, NP-40, poly dI-dC, 0.05 pmol biotin probe in 20 ul, 25 C, 1 h
[2] = biological target: T1, MqsA-CHis (Pseudomonas putida KT2440) (UniProt Q88F94); test: EMSA; conditions: 10 mM HEPES pH 7.3, 20 mM KCl, 1 mM MgCl2, 5% glycerol, NP-40, poly dI-dC, 0.05 pmol biotin probe in 20 ul, 25 C, 1 h
T1 sequence: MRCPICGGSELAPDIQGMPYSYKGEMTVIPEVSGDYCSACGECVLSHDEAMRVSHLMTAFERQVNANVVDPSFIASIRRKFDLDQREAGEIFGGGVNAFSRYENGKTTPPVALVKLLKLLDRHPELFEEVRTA

## CTATTAGCCAAATTTAACCTGGAAGGTTAATTTCTCATGGAAAAGAGAATGCCTCATTGCCCGCTGGAGCGGGTAAAAGCCCTGGCTGCGGCAAGGCGAATCCGCCCTACGGGTGCTGCATTGAAAGGCG (double strand) [PmqsRA]
[1]
  binding: no binding
[2]
  binding: binds
